In US7741276B2, “Use of interleukin-18 inhibitors to inhibit tumor metastasis” (Ares Trading S.A., priority 1999, dated 2010):
Values joined by “and” are separate entries in the source; they are usually repeats but may differ in a detail not shown here. Equal values may be shown once. Marks after values point to notes of the source that are not given here.

Experiments:
[1] = test system: B16M cell adhesion to IL-18-treated HSE; test: B16M cell adhesion to IL-18-treated HSE; assay type: cell-based, mouse
Description: FIG. 4. In vitro B16M cells adhesion to IL-18-treated HSE. HSE cells were incubated with 1 ng/ml recombinant murine IL-18 for 6 hours. In some experiments, 10 μg/ml TNF-sRp55 or 100 ng/ml IL-1Ra was added 10 min before IL-18.In other experiments, 10 μg/ml anti-VCAM-1 antibody or a similar concentration of non-specific anti-mouse lgG was added to HSE cells 30 min before B16M cells. Then, B16M cell adhesion percentage was determined as described hereinbelow in the examples. The results represent the mean ±SD of three separate experiments, each in sextuplicate (n=18). Differences in the degree of adhesion with respect to basal medium-treated HSE (*) and to IL-18-treated HSE (**) were statistically significant (P<0.01), according to the Student's two-tailed, unpaired t-test.
(§1) HSE was separated from syngeneic mice, identified and cultured as previously described (26). B16M cells were labeled with 2′,7′-bis-(2-carboxyethyl)-5,6-carboxyfluorescein-acetoxymethylester solution (BCECF-AM, Molecular Probes, Eugene, Oreg.) as reported (16). Then, 2×10^5 cells/well were added to 24-well-plate cultured HSE and 8 min later, wells were washed three times with fresh medium. The number of adhering cells was determined using a quantitative method based on a previously described fluorescence measurement system (16). In some experiments, HSE cells were pre-incubated with B16M-CM for several hours before addition of B16M cells.

[2] = test system: B16M cell adhesion to HSE cells; test: B16M cell adhesion to B16M-CM-treated primary HSE cultures; assay type: cell-based, mouse; settings: for % Melanoma Cell Adhesion: HSE stimulated with B16-CM
Description: FIG. 2 Effect of irreversible ICE inhibitor and anti-mouse IL-18 antibody on B16M cell adhesion to HSE cells, and IL-1β and TNF-α production from untreated and B16M-CM-treated HSE. Cultured HSE cells were incubated in the presence of B16M-CM for 10 h. In some experiments, both untreated and treated HSE cells received 10 μM ICEi or 10 μg/ml anti-mouse IL-18 antibody before B16M-CM. The percentage of B16M cells adhered to HSE substrate was calculated as relative value with respect to the initial number of added cells. In addition, the culture supernatants were recovered before adhesion to determine IL-1β and TNF-α concentration by ELISA. Data represent the mean ±SD of 4 separate experiments, each in sextuplicate (n=24). The augmentation of B16M cell adhesion to B16M-CM-treated HSE and of IL-1β or TNF-α production with respect to untreated HSE (*P<0.01) were statistically significant according to the Student's two-tailed, unpaired t-test.
(§2) FIG. 3. Effect of ICEi on B16M cell adhesion to B16M-CM-treated HSE in vitro. HSE cells were incubated with basal medium or B16M-CM for 8 h. Some HSE cells received 10 μM ICEi for 18 h before B16M-CM. In addition, 1 ng/ml recombinant murine IL-1β was also added to some HSE cells together with B16M-CM for 8 h. In other experiments, HSE cells received 1 ng/ml murine IL-1β or 100 pg/ml TNF-α for 6 h, and 10 μg/ml rabbit anti-mouse IL-18 polyclonal antibody was added or not 1 h before the cytokine treatment. Non-specific IgG polyclonal antibody was also added to untreated and cytokine-treated HSE cells. Then, HSE cells were washed and BCEFCF-AM-labeled B16M cells were added and washed again 8 min later. The percentage of B16M cells adhered to HSE substrate was calculated as relative value with respect to the initial number of added cells. The results represent the mean ±SD of three separate experiments, each in sextuplicate (n=18). Differences in the degree of adhesion with respect to untreated HSE (*) and to IL-1β or TNF-α-treated HSE (**) were statistically significant (P<0.01), according to the Student's two-tailed, unpaired t-test.
Culture of B16M cells. B16M cells were cultured, maintained and passaged as previously described (11). B16M conditioned medium (B16M-CM) was prepared as follows: 5×10^5 cells were plated in a 25 cm^2 T-flask and cultured for 24 h. After which, cells were cultured for an additional period of 24 h in 5 ml serum-free medium (final cellular density of 6×10^4 cells/cm^2). Supernatants were collected, diluted 3:1 in fresh serum-free medium and passed through a 0.22 Ïm filter.
(§3) HSE was separated from syngeneic mice, identified and cultured as previously described (26). […] The number of adhering cells was determined using a quantitative method based on a previously described fluorescence measurement system (16). […]

[3] = test system: B16M cell adhesion to IL-1β or TNF-α-treated HSE; test: B16M cell adhesion to IL-1β- or TNF-α-treated HSE; assay type: cell-based, mouse; settings: 1 ng/ml murine IL-1β
Description: as §2, §3

B16M cells = test: Adhesion of pre-treated B16M cells (IL-18 or supernatant of B16M-CM-treated HSE) to HSE; assay type: cell-based, mouse; settings: B16M cells incubated with 1 ng/ml murine IL-18 for 6 h
Description: However, local production of IL-18 may influence B16M cell behavior during its transit or arrest in the hepatic microvasculature.
as §1

IL-18 = molecular target: T1, IL-18 (Homo sapiens, UniProt Q14116); settings: in vitro; cited from earlier work
T1 sequence (Q14116 37-193): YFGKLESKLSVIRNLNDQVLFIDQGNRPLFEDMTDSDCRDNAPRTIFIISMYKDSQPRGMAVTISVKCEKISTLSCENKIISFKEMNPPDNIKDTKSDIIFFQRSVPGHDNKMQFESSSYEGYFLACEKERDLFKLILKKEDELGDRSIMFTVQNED

circulating IFN-γ = settings: administration of IL-18BP to mice; cited from earlier work

For “IL-1Ra: recombinant human IL-1 receptor antagonist, gift from The Upjohn Co. [reference compound]”, the “inhibition of IL-18-induced B16M cell adhesion to HSE” value ([1]; 100 ng/ml IL-1Ra added 10 min before IL-18) was “neither TNF-sR p55 nor IL-1Ra were able to inhibit it”.

B1: murine IL-1β: recombinant murine IL-1β from R&D System Inc. (protein, UniProt P10749 118-269, looked up)
Interleukin-1 beta: VPIRQLHYRLRDEQQKSLVLSDPYELKALHLNGQNINQQVIFSMSFVQGEPSNDKIPVALGLKGKNLYLSCVMKDGTPTLQLESVDPKQYPKKKMEKRFVFNKIEVKSKVEFESAEFPNWYISTSQAEHKPVFLGNNSGQDIIDFTMESVSS
With B1 the “compensation of the blocking effect of ICEi on HSE adhesiveness” value ([2]; 1 ng/ml murine IL-1β added with B16M-CM for 8 h to ICEi-treated HSE) was “did not compensate” and the “B16M cell adhesion to IL-1β-treated control HSE” value [3] was “significant B16M cell adhesion increase”.

B2: TNF-sR p55: human p55 TNF soluble receptor, gift from Serono Inc. (protein, UniProt P19438 30-211, looked up)
extracellular domain: LVPHLGDREKRDSVCPQGKYIHPQNNSICCTKCHKGTYLYNDCPGPGQDTDCRECESGSFTASENHLRHCLSCSKCRKEMGQVEISSCTVDRDTVCGCRKNQYRHYWSENLFQCFNCSLCLNGTVHLSCQEKQNTVCTCHAGFFLRENECVSCSNCKKSLECTKLCLPQIENVKGTEDSGTT
modifications: extracellular domain
In the case of B2, the “inhibition of IL-18-induced B16M cell adhesion to HSE” value ([1]; 10 μg/ml TNF-sRp55 added 10 min before IL-18) is reported as “neither TNF-sR p55 nor IL-1Ra were able to inhibit it”.

B3: murine IL-18: recombinant murine IL-18 purchased from PeproTech (protein, UniProt P70380 36-192, looked up)
Interleukin-18: NFGRLHCTTAVIRNINDQVLFVDKRQPVFEDMTDIDQSASEPQTRLIIYMYKDSEVRGLAVTLSVKDSKMSTLSCKNKIISFEEMDPPENIDDIQSDLIFFQKRVPGHNKMEFESSLYEGHFLACQKEDDAFKLILKKKDENGDKSVMFTLTNLHQS
In the case of B3, the “B16M cell adhesion to HSE” value ([1]; HSE incubated with 1 ng/ml recombinant murine IL-18 for 6 hours, P<0.01) is reported as “increased” and the “increase of B16M cell adhesion to untreated HSE” value (B16M cells) is reported as 2 fold.

B4: IL-18BP: IL-18 binding protein, purified from urine, cloned and expressed in COS7 cells; binds IL-18 and blocks its activity (protein, UniProt O95998 31-194, looked up)
Interleukin-18-binding protein: TPVSQTTTAATASVRSTKDPCPSQPPVFPAAKQCPALEVTWPEVEVPLNGTLSLSCVACSRFPNFSILYWLGNGSFIEHLPGRLWEGSTSRERGSTGTQLCKALVLEQLTPALHSTNFSCVLVDPEQVVQRHVVLAQLWAGLRATLPPTQEALPSSHSSPQQQG
With B4 the “% Melanoma Cell Adhesion” value ([2]; IL-18BP 1 ng/ml) was 15.00 ± 2.5** %, the “% Melanoma Cell Adhesion” value ([2]; IL-18BP 10 ng/ml) was 8.70% and 8.70 ± 1.1** % and the “inhibition of B16-CM-induced adhesion” value ([2]; IL-18BP 10 ng/ml, adhesion below basal medium level) was 100%. For the same molecule, the “IL-18 activation of NF-κB” value (IL-18) was “abolished”, the “IL-18 induction of IL-8” value (IL-18) was “abolished” and the “IL-18 induction of interferon-γ (IFN-γ)” value (IL-18) was “abolished”. For the same molecule, the “circulating IFN-γ following LPS” value (circulating IFN-γ) was “abrogated”.
